Publication PMC5343618

Target: T1, alkaline phosphatase D (PhoD) with a C-terminal 6-His tag (PhoD-H) (B. subtilis 168), P42251
T1 chain: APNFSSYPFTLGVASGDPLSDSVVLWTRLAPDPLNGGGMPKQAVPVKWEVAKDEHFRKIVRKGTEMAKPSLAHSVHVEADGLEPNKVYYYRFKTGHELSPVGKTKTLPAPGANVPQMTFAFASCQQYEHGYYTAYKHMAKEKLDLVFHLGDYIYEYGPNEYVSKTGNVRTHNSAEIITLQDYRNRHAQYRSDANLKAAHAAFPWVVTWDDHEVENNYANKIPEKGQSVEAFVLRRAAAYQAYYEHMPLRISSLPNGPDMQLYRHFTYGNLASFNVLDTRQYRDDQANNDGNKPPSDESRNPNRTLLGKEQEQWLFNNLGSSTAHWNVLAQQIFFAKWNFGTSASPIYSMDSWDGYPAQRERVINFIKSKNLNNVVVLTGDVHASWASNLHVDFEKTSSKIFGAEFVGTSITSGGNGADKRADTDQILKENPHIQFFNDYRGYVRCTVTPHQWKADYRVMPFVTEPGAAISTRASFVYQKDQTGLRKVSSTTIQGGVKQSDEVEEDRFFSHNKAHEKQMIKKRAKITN
Experiment: cross-linking; in vivo cross-linking of B. subtilis cells with 0.5 mM DSS in PBS pH 8.3, 20 min at 37 °C; cells recovered 1 h in fresh medium; 10% SDS-PAGE with β-mercaptoethanol and anti-His immunoblot of cell and supernatant fractions
Settings: remark: other sources report otherwise

B1: alkaline phosphatase D (PhoD) with a C-terminal 6-His tag (PhoD-H), P42251 57-583 (enzyme)
chain: APNFSSYPFTLGVASGDPLSDSVVLWTRLAPDPLNGGGMPKQAVPVKWEVAKDEHFRKIVRKGTEMAKPSLAHSVHVEADGLEPNKVYYYRFKTGHELSPVGKTKTLPAPGANVPQMTFAFASCQQYEHGYYTAYKHMAKEKLDLVFHLGDYIYEYGPNEYVSKTGNVRTHNSAEIITLQDYRNRHAQYRSDANLKAAHAAFPWVVTWDDHEVENNYANKIPEKGQSVEAFVLRRAAAYQAYYEHMPLRISSLPNGPDMQLYRHFTYGNLASFNVLDTRQYRDDQANNDGNKPPSDESRNPNRTLLGKEQEQWLFNNLGSSTAHWNVLAQQIFFAKWNFGTSASPIYSMDSWDGYPAQRERVINFIKSKNLNNVVVLTGDVHASWASNLHVDFEKTSSKIFGAEFVGTSITSGGNGADKRADTDQILKENPHIQFFNDYRGYVRCTVTPHQWKADYRVMPFVTEPGAAISTRASFVYQKDQTGLRKVSSTTIQGGVKQSDEVEEDRFFSHNKAHEKQMIKKRAKITN
B1 was tested, and the stoichiometry N was 2.
